The text below walks through data of patent US20030092624A1 (YISSUM RESEARCH DEVELOPMENT COMPANY OF THE HEBREW …, published 2003).

In data set [1] the target is T1, Citrate Synthase (CS), Roche Diagnostics (UniProt P00889 28-464).
T1 sequence (looked up): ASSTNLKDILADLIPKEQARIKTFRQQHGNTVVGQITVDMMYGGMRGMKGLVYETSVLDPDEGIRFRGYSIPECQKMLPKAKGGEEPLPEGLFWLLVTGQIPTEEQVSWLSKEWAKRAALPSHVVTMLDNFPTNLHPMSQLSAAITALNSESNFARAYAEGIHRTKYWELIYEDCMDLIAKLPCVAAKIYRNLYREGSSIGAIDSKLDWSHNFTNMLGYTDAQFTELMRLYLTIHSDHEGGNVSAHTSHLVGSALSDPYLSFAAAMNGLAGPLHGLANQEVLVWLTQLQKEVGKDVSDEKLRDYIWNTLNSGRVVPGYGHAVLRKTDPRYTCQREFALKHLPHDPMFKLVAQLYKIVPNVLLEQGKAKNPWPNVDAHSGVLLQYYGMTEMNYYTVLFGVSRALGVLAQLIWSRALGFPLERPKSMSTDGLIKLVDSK
The experiment in a line: cell-based or functional assay.

Data set [2] deals with Horseradish Peroxidase (HRP), Sigma (horseradish) (UniProt P00433). In words: cell-based or functional assay.
For data set [3], the target named is alpha-amylase (Sigma, A 6380). The experiment in a line: cell-based or functional assay.
Data set [4] has as its target superoxide dismutase (SOD), cosmetic grade ('dismutin', Pentapharm Ltd.). The experiment in a line: cell-based or functional assay.
Data set [5] addresses T2, Horseradish Peroxidase (HRP), Sigma (horseradish, UniProt P00433 31-338).
T2 sequence (looked up): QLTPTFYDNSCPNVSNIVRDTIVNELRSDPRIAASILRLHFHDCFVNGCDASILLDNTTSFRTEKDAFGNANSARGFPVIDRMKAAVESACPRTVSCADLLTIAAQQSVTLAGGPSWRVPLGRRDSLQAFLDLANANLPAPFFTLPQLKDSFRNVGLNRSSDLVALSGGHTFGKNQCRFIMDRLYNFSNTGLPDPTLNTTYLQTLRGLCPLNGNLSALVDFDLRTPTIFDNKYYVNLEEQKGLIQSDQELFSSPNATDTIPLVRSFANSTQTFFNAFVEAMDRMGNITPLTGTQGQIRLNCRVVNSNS
The experiment in a line: cell-based or functional assay.

Data set [6] deals with the molecule itself. In words: SDS-tricine PAGE; self-association of SP1 monomers.

Regarding “recombinant CBD-SP1 fusion protein (32.4 kDa monomer) expressed in E. coli from pET-CBD-180-SP1”, in data set [1], the remaining CS enzymatic activity at 43° C. after 40 minutes, CS:CBD-SP1 monomeric molar ratio of 1:20 is 73% and the remaining CS enzymatic activity at 43° C. after 40 minutes, CS:CBD-SP1 ratio of 1:5 was 33%.

B1: native SP1 protein purified from aspen plants (116 kDa oligomer / 12.4 kDa monomer) (other)
chain: MATRTPKLVKHTLLTRFKDEITREQIDNYINDYTNLLDLIPSMKSFNWGTDLGMESAELNRGYTHAFESTFESKSGLQEYLDSAALAAFAEGFLPTLSQRLVIDYFLY
notes: Homo-oligomer; On Western blots the protein was separated by SDS-PAGE first; also called purified SP1; plant SP1 protein
As to B1, the HRP activity rescued after room temperature inactivation in data set [2] was 10%. In data set [3], the alpha-amylase activity after 2 hours in 2 M CaCl2 amounted to 50%, the increase in alpha-amylase activity 2 hours after SP1 addition turned out to be 60% and the remaining alpha-amylase activity after one-week incubation at room temperature was above 40%. This molecule showed an SOD activity compared to SP1 untreated SOD in data set [4] of 60%. Besides, in data set [1], the “protection of CS activity against heat inactivation at 43° C., CS:SP1 ratio of 1:5, 40 minutes” value was determined as 22%; the “remaining CS enzymatic activity at 43° C., CS:SP1 ratio of 1:50, 15 minutes” value was around 100%; the “remaining CS enzymatic activity at 43° C., CS:SP1 ratio of 1:50, 40 minutes” value was at least 93%. For the same molecule, in data set [5], the “protection of HRP activity at 55° C. compared with BSA at 1:300” value is around 3 fold; the “protection of HRP activity at 55° C., HRP:SP1 molar ratio of 1:300, 60 minutes” value is above 60%; the “remaining HRP activity at 55° C., HRP:SP1 molar ratio of 1:300, 2 hours” value was determined as 53%. The binding result in data set [6] is recorded as “binds”.
